Test results published in patent US20210008108A1 (ETABLISSEMENT FRANCAIS DU SANG, published 2021).

Target: T1, recombinant fusion protein consisting of the extra cellular part of IL-1RAP and the Fc-part of human IgG1 … (human, UniProt Q9NPH3 21-367)
T1 construct: extracellular domain; also called IL-1RAP recombinant protein; recombinant IL-1RAP protein; not shown: Fc-part of human IgG1
T1 sequence (looked up): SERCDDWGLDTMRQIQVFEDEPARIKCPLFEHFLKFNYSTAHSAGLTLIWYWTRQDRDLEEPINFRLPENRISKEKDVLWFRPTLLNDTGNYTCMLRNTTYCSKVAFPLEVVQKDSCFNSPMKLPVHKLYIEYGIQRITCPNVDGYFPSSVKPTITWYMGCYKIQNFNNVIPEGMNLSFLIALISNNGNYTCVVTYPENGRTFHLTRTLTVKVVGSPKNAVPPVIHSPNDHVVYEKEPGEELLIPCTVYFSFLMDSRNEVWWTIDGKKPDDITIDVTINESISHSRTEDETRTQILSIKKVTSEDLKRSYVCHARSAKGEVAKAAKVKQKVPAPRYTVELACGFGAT
Experiment: ELISA, IL-1RAP protein captured by coated anti-human Fc, detected with anti-mouse Fc-HRP
From the text: Anti-human Fc antibody was coated on a bottom of a plastic ELISA plate.

binding result: binds
B1: mouse anti-hIL-1RAP monoclonal antibody clone #E3C3 (antibody, V domains shown)
VH: QVQLQQPGAELMMPGASVKVSCEASGYTFTDSWMHWVKQRPGQGLEWIGAIDPSDSYTTYNQKFTGKATLSVDESSNTAYMQLSSLTSEDSAVYYCARYYSGSNYISPFPYWGQGTLVTVSA
VL: DIVMTQSHKFMSTSVGDRVTITCKASLDVSTAVAWYQQKPGQSPKLLIYSASYRYTGVPDRFTGSGSGTDFTFTISSVQAEDLAVYYCQQHYSPPFTFGSGTNLEIK
notes: Murine hybridoma antibody; It was Alexa Fluor 488 labelled in some flow cytometry; also called #A3C3; #E3C3 mAb
